Test results from PMC2794166.

Target: T1, mPOT1a_N (mouse, UniProt Q91WC1 1-300)
T1 sequence: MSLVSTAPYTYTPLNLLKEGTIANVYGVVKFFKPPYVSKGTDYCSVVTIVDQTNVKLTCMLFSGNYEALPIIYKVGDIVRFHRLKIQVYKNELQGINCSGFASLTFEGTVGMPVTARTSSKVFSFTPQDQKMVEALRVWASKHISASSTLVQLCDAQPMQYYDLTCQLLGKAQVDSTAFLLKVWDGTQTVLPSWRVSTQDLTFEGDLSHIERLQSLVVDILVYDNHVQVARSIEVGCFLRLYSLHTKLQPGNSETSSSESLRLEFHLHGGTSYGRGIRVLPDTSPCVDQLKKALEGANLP
Test: EMSA

TTAGGGTTAGGG (ssDNA) [(TTAGGG)2]
binding result: no binding
